In the Immune Epitope Database (IEDB):

Experiments:
Assay in all cases: IEDB peptide-MHC binding, purified MHC/competitive/radioactivity; filed as Kd, often an IC50 or EC50 that approximates it; ≥ and ≤ were set here for values at or beyond the usual limits of such assays
HLA-A*02:03 = molecular target: HLA-A*02:03
HLA-A*31:01 = molecular target: HLA-A*31:01
HLA-A*33:01 = molecular target: HLA-A*33:01
HLA-A*11:01 = molecular target: HLA-A*11:01
HLA-A*68:01 = molecular target: HLA-A*68:01
HLA-A*03:01 = molecular target: HLA-A*03:01
[1] = source organism: Vaccinia virus WR
[2] = source organism: SARS coronavirus Tor2
[3] = source organism: Vaccinia virus Copenhagen
[4] = source organism: Lassa virus Josiah

Sequence	Kd (HLA-A*31:01; [1]) [nM]	Kd (HLA-A*33:01; [1]) [nM]	Kd (HLA-A*11:01; [1]) [nM]	Kd (HLA-A*68:01; [1]) [nM]	Kd (HLA-A*03:01; [1]) [nM]	further results
GLFTSLGKAV	–	–	–	–	–	Kd (HLA-A*02:03; source organism: Dengue virus 4 Dominica/814669/1981): 18.7 nM
GMSKEPGVV	–	–	–	–	–	Kd (HLA-A*02:03; source organism: Dengue virus 3 Martinique/1243/1999): 41.7 nM
LLTIGLSLV	–	–	–	–	–	Kd (HLA-A*02:03; source organism: Dengue virus 1 Brazil/97-11/1997): 4.99 nM
RIQRRDDVDR	78.5	17600	≥ 69800	≥ 42500	≥ 70100	–
RVDIYYNGNK	5360	≥ 53600	4.86	120	45.6	–
SFYYIWKSY	–	–	–	–	–	Kd (HLA-A*31:01; [2]): 68.1 nM; Kd (HLA-A*33:01; [2]): 779 nM; Kd (HLA-A*11:01; [2]): 6730 nM; Kd (HLA-A*68:01; [2]): 447 nM; Kd (HLA-A*03:01; [2]): 5150 nM
SIHLTKTDKK	≥ 21800	≥ 70000	278	1990	185	–
SLSVETITEK	1250	≥ 70000	117	12200	33.2	–
SQMLLIVLK	–	–	–	–	–	Kd (HLA-A*31:01; [2]): 350 nM; Kd (HLA-A*33:01; [2]): 4960 nM; Kd (HLA-A*11:01; [2]): 0.503 nM; Kd (HLA-A*68:01; [2]): 310 nM; Kd (HLA-A*03:01; [2]): 204 nM
SSLDQTHIK	–	–	–	–	–	Kd (HLA-A*31:01; [3]): 26 nM; Kd (HLA-A*33:01; [3]): 19800 nM; Kd (HLA-A*11:01; [3]): 31.8 nM; Kd (HLA-A*68:01; [3]): 1490 nM; Kd (HLA-A*03:01; [3]): 961 nM
STNLCTHSFR	–	–	–	–	–	Kd (HLA-A*31:01; [2]): 0.941 nM; Kd (HLA-A*33:01; [2]): 8.87 nM; Kd (HLA-A*11:01; [2]): 10.6 nM; Kd (HLA-A*68:01; [2]): 6.19 nM; Kd (HLA-A*03:01; [2]): 297 nM
STRTIILVGY	339	8020	221	100	188	–
SVEDVSAFVR	656	2120	36.8	15.6	≥ 70100	–
SVIRLLIWAY	2240	17600	17.3	776	1380	–
TFNSLNTDDY	≥ 34200	≥ 70000	10100	4080	5440	–
TLTNTSIINH	–	–	–	–	–	Kd (HLA-A*31:01; [4]): ≥ 59800 nM; Kd (HLA-A*33:01; [4]): ≥ 70000 nM; Kd (HLA-A*11:01; [4]): 15400 nM; Kd (HLA-A*68:01; [4]): 13100 nM; Kd (HLA-A*03:01; [4]): 5160 nM

Sequence	Kd (HLA-A*31:01; [1]) [nM]	Kd (HLA-A*33:01; [1]) [nM]	Kd (HLA-A*11:01; [1]) [nM]	Kd (HLA-A*68:01; [1]) [nM]	Kd (HLA-A*03:01; [1]) [nM]	further results
TQVLKTMSLY	–	–	–	–	–	Kd (HLA-A*31:01; [2]): 9420 nM; Kd (HLA-A*33:01; [2]): ≥ 27600 nM; Kd (HLA-A*11:01; [2]): 2670 nM; Kd (HLA-A*68:01; [2]): 10300 nM; Kd (HLA-A*03:01; [2]): 185 nM
TTKDYFSFKK	96.4	1330	1.25	0.556	31.3	–
TVYDDAARR	–	–	–	–	–	Kd (HLA-A*31:01; [2]): 1160 nM; Kd (HLA-A*33:01; [2]): 4970 nM; Kd (HLA-A*11:01; [2]): 97.1 nM; Kd (HLA-A*68:01; [2]): 2.54 nM; Kd (HLA-A*03:01; [2]): 455 nM
VIGLTTHCTK	761	≥ 35300	45.9	73.2	15.4	–
VLCNSQTSLR	–	–	–	–	–	Kd (HLA-A*31:01; [2]): 68.4 nM; Kd (HLA-A*33:01; [2]): 1180 nM; Kd (HLA-A*11:01; [2]): 1860 nM; Kd (HLA-A*68:01; [2]): 1010 nM; Kd (HLA-A*03:01; [2]): 435 nM
VLDRDGNFR	159	607	15600	926	3330	–
VLTLATGPV	–	–	–	–	–	Kd (HLA-A*02:03; source organism: Dengue virus 4 Philippines/H241/1956): 24.9 nM
VSYEVFDDY	≥ 77900	19100	134	1570	≥ 37100	–
VTMMKYCSY	460	2060	8.78	521	650	–
VTYVPSQER	–	–	–	–	–	Kd (HLA-A*31:01; [2]): 23.6 nM; Kd (HLA-A*33:01; [2]): 341 nM; Kd (HLA-A*11:01; [2]): 883 nM; Kd (HLA-A*68:01; [2]): 1130 nM; Kd (HLA-A*03:01; [2]): 3270 nM
VVPDYGTYK	–	–	–	–	–	Kd (HLA-A*31:01; [2]): 2720 nM; Kd (HLA-A*33:01; [2]): 17200 nM; Kd (HLA-A*11:01; [2]): 84.4 nM; Kd (HLA-A*68:01; [2]): 494 nM; Kd (HLA-A*03:01; [2]): 309 nM
WFLKSGAVVK	7630	4410	116	191	11	–
WLSSKGLACY	19500	≥ 58600	≥ 28900	≥ 28300	418	–
YFTFGDTALY	≥ 48000	≥ 45300	6400	49.9	9010	–
YLRNYMVIK	35	930	897	1670	1.34	–
YVKNGTKGK	≥ 72100	≥ 65500	875	39.3	2080	–
